{"source": "the DeepSol protein solubility set"}
{"assay": "soluble on expression in E. coli; label from the status in PepcDB or PDB records"}
{"sequence": "SLEEYHKWYYGNLVWTKTTYMGINCWKSVSDMWNYQEILSELQPSLVIEFGTRYGGSAVYFANIMRQIGQPFKVLTVDNSHKALDPRARREPDVLFVESSSTDPAIAEQIQRLKNEYPGKIFAILDSDHSMNHVLAEMKLLRPLLSAGDYLVVEDSNINGHPVLPGFGPGPYEAIEAYEDEFPNDYKHDAERENKFGWTSAPNGFLIRN", "soluble on expression in E. coli": "soluble"}
{"sequence": "GPVNPAENFRVLVKQKKASFEEASNQLINHIEQFLDTNETPYFMKSIDCIRAFREEAIKFSEEQRFNNFLKALQEKVEIKQLNHFWEIVVQDGITLITKEEASGSSVTAEEAKKFLAPKD", "soluble on expression in E. coli": "soluble"}
{"sequence": "MKSLETMARYKKELTECARNLKLPFLAEHLDEILHEAQEKQQTYSEFLSTCLMRELRDKERRSYLTRLKFAGLPARYDLDLYDFSRTEGIDQRQMRELRELVWIRRTYNLLLVGDSGTGKTFIASGLIHEAVKAGYKAYLLTLEELFVCLKTKEISRPAMKTYKRIMKAQLLAIDDVTLFPLKGEDVLLLFKLVNCVQGKTSLIITASRDLTGWLEMAGDEVCAAALLDRLLYCCEIIRLSGKSYRMENRKTIFSNQQIGTASLEHHHHHH", "soluble on expression in E. coli": "not soluble"}
{"sequence": "MNITKIDWQKVNGLLPVIIQNISTREVLMLGYMNEEALTKTIKERKVTFFSRTKQRLWTKGEISGNFLNVEEMSLDCDNDTLLILVDPIGATCHTGEYSCFHQFTSPQSENKKQQFANWAWFIKLEQHLKEKKNADPSNSYTATLHAKGTKKIAQKVGEEGVETALAAVAQDKAEVISEATDLVYHLTVLLHNQDLQWYEIIAKLQERHQGIGLHPEGGNK", "soluble on expression in E. coli": "soluble"}
{"sequence": "GPWKGGRGRAASLLPLNRALGTTRPHKEGEVPGVDYIFITVEDFMELEKSGALLESGTYEDNYYGTPKPPAEPAPLLLNVTDQILPGATPSAEGKRKRNKSVSNMEKASIEPPEEEEEERPVVNGNGVVVTPESSEHEDKSAGASGEMPSQPYPAPVYSQPEELKEQMDDTKPTKPEDNEEPDPLPDNWEMAYTEKGEVYFIDHNTKTTSWLDPRLAKKAKPPEECKENELPYGWEKIDDPIYGTYYVDHINRRTQFENPVLEAKRKLQQHNMPHTELGTKPLQAPGFREKPLFTRDASQLKGTFLSTTLKKSNMGFGFTIIGGDEPDEFLQVKSVIPDGPAAQDGKMETGDVIVYINEVCVLGHTHADVVKLFQSVPIGQSVNLVLCRGYPLPFDPEDPANSMVPPLAIMERPPPVMVNGRHNYETYLEYISRTSQSVPDITDRPPHSLHSMPTDGQLDGTYPPPVHDDNVSMASSGATQAELMTLTIVKGAQGFGFTIADSPTGQRVKQILDIQGCPGLCEGDLIVEINQQNVQNLSHTEVVDILKDCPIGSETSLIIHRGGFFSPWKTPKPIMDRWENQGSPQTSLSAPAIPQNLPFPPALHRSSFPDSTEAFDPRKPDPYELYEKSRAIYESRRPDYKELDVHLRRMESGFGFRILGGDEPGQPILIGAVIAMGSADRDGRLHPGDELVYVDGIPVAGKTHRYVIDLMHHAARNGQVNLTVRRKVLCGGEPCPENGRSPGSVSTHHSSPRSDYATYTNSNHAAPSSNASPPEGFASHSLQTSDVVIHRKENEGFGFVIISSLNRPESGSTITVPHKIGRIIDGSPADRCAKLKVGDRILAVNGQSIINMPHADIVKLIKDAGLSVTLRIIPQEELNSPTSAPSSEKQSPMAQQSPLAQQSPLAQPSPATPNSPIAQPAPPQPLQLQGHENSYRSEVKARQDVKPDIRQPPFTDYRQPPLDYRQPPGGDYQQPPPLDYRQPPLLDYRQHSPDTRQYPLSDYRQPQDFDYFTVDMEKGAKGFGFSIRGGREYKMDLYVLRLAEDGPAIRNGRMRVGDQIIEINGESTRDMTHARAIELIKSGGRRVRLLLKRGTGQVPEYDEPAPWSSPAAAAPGLPEVGVSLDDGLAPFSPSHPAPPSDPSHQISPGPTWDIKREHDVRKPKELSACGQKKQRLGEQRERSASPQRAARPRLEEAPGGQGRPEAGRPASEARAPGLAAADAADAARAGGKEAPRAAAGSELCRREGPGAAPAFAGPGGGGSGALEAEGRAGARAGPRPGPRPPGGAPARKAAVAPGPWKVPGSDKLPSVLKPGASAASR", "soluble on expression in E. coli": "soluble"}
{"sequence": "MAHHHHHHMKQIDQLIIEEADENTIIPYYLSNLLTNASNPVVFMDVNLGNHFLGKFKFELFQNIVPKTSENFRQFCTGEYKVNNLPVGYKNTTFHRVIKEFMIQGGDFVNYNGSGSLSIYGEIFEDENFDVKHDQEGLLSMANSGPNTNGCQFFITTKKCEWLDGKNVVFGRIIDSDSLILLKKIENVSVTPYIYKPKIPINIVECGEL", "soluble on expression in E. coli": "not soluble"}
{"sequence": "MPLELTQSRVQKIWVPVDHRPSLPRSCGPKLTNSPTVIVMVGLPARGKTYISKKLTRYLNWIGVPTKVFNVGEYRREAVKQYSSYNFFRPDNEEAMKVRKQCALAALRDVKSYLAKEGGQIAVFDATNTTRERRHMILHFAKENDFKAFFIESVCDDPTVVASNIMEVKISSPDYKDCNSAEAMDDFMKRISCYEASYQPLDPDKCDRDLSLIKVIDVGRRFLVNRVQDHIQSRIVYYLMNIHVQPRTIYLCRHGENEHNLQGRIGGDSGLSSRGKKFASALSKFVEEQNLKDLRVWTSQLKSTIQTAEALRLPYEQWKALNEIDAGVCEELTYEEIRDTYPEEYALREQDKYYYRYPTGESYQDLVQRLEPVIMELERQENVLVICHQAVLRCLLAYFLDKSAEEMPYLKCPLHTVLKLTPVAYGCRVESIYLNVESVCTHRERSEDAKKGPNPLMRRNSVTPLASPEPTKKPRINSFEEHVASTSAALPSCLPPEVPTQLPGQNMKGSRSSADSSRKH", "soluble on expression in E. coli": "soluble"}
{"sequence": "MSLIKLIATDMDGTLLNAAHEISQPNIDAIKYAQEQGITVVIATGRAFYEAQAPVADTDLTVPYICLNGAEVRDETFNVMSTSHLNKSLVHKITNVLKDAGIYYQVYTSRAIYTEDPQRDLDIYIDIAERAGQHANVERIKNGIQRRIDNGTLKVVDNYDAIENIPGELIMKILAFDGNLEKIDKASKILAESPNLAISSSSRGNIEITHSDAQKGIALETIAERLGIEMKDVMAIGDNLNDLSMLEKVGYPVAMENGAEEVKKIAKYVTDTNENSGVGKAIMKLLREQEGHHHHHH", "soluble on expression in E. coli": "soluble"}
{"sequence": "AAPTATVTPSSGLSDGTVVKVAGAGLQAGTAYWVAQSAWVDTGVYASNPADISSVTADANGSASTSLTVRRSFEGFLWDGTRWGTVDCTTAACHVTLRDALSNGPEGVAISF", "soluble on expression in E. coli": "soluble"}
{"sequence": "MSLTAPRTPGTPRTPRTEHLVLPGVLTAAEAAATVRGILAVQREDGAIPWFRGHHLDPWDHVEAAMALDTADEHEAAERAYAWLARHQNQDGSWYAAYADGDFADVTDRGRETNFVAYVAVGVWHHYLATGDDLFLERMWPVVHAAVEFVLRLQQPGGQIGWRRGDDGTDTTDALLTGSSSVHHALRCALAIAEQREEPQPDWELAAGALRHAIRRHPERFLDKGRYSMDWYYPVLGGALTGTEARSRIQESWDRFVVPGLGVRCVVPNPWVTGGESAELALALWAVGESDHALEILQSIQHLRDPDSGLYWTGYVFEDETVWPRELTAWTAGSLLLAVAALGGHEATCQVFAGERLPRGLDPDCCVEGHHHHHH", "soluble on expression in E. coli": "soluble"}
{"sequence": "MLRIAYRLLWRALLPFALLRLWWRGRKEPGYRQHVGERLGFYRPRANPDHPLLWVHAVSVGETRAAQPLIDALLARFPQHDVLLTHMTPTGRRTGAEFAAQRNGRVIQAYLPYDLAGAVDRFLRHFQPRLGLLMETEIWPVLIERAHHAGVPMVLVNGRLSERSHRRTARLGQAARETYAQLAAVLAQTPDDADRYRSLGVPRVRVTGNLKFDITPHVDQIMMGRALRDALGGRAVWVAASTREGEEPLLLDAWHAHRAQHAGRRHPLLILVPRHPQRFDEVAQLAGLKGLRVARRSALSLSAAEAPDAAGVLDADILLGDSMGEMALYYAAAQAAFIGGSLLPMGGQNLIEACAVGTPVVIGPHTFNFAQATRDAVAAGACVQVEDAACAVRVIDQWLSDADAREAASRAALAFAATHGGATARTVEAVASLVLPSLLEHHHHHH", "soluble on expression in E. coli": "not soluble"}
{"sequence": "MTCFKIRLSKQPLKGRTMNKPFITQAQLALYKYQPSSKYYGKTMAYTFASELLDYSKVNKFIIHEEIQCFLNRRISNNIWKIYFSDESVAYIKILELQDDYSRGIEIKTFDFNPNVGDVFG", "soluble on expression in E. coli": "not soluble"}
{"sequence": "MECSQEDVVNDFIALEKIGSEVDINLDGVIKSKECSNTNEADIISNLITAIEESLSCTSVCTAVSLETVAQKLDAYADPSLNTQMSFSTASDLSSMEQDYVKASDDPFDLNHQPSPLQVWRDQGKITGFQMMCDDQKVTVVDSLECLAQSEQHLEPVYFDPRVNLAIPCPPDDFEILEDYGSTSNASVNSDDASTAELGPTSEEFEEWVRKIEQNY", "soluble on expression in E. coli": "not soluble"}
